Results on one molecule are retold here after patent US20190194718, “GENERATION OF TAGGED DNA FRAGMENTS” (QIAGEN GMBH, published 2019).

The series concerns the target BPHIN 1 (wild-type HIV-1 integrase) (Human immunodeficiency virus 1, UniProt P04585 P04585:1148-1435). Nature of the series: pGL2 fragments 150-500 bp; 5 mM MnCl2, 37 C. Particulars: tags: BioProducts MD, LLC; chain copies: 4; partially double-stranded.

B1: IN adaptor 7 (dsDNA)
DNA 1: AATGATACGGCGACCACCGAGATCTACACTCTTTCCCTACACGACGCTCTTCCGATCTAGCAGT
DNA 2: ACTGCT
For the molecule B1, the binding result is reported as “binds”.
